Reference: the NTF2 design screens of Basanta et al. (2020)

Assay: protease stability score; higher = more stable; yeast display proteolysis, trypsin and chymotrypsin;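 further: relative to predicted unfolded state with 0 unfolded-like and 1 meaning tenfold more protease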

| Sequence | protease stability score |
| --- | --- |
| REEEQHAERFTKLFIEAFETGDWKELSRLLDPHARMEWNGRVHHGMEQIVEVLLKQFHDLGFRIEHVRIHDIRVQGEKIKVDVDIDGIVDGRREHWKVTLIILKVNGRWLTKEIEYR | 1.31 |
| REEEREAKEWLERLIRDIITGDEDKMTNLIDPNVRILINGKHIHGWELYFKIWIDHVERFPNMRVDYHVKSITFFNGRIIMYYEERIHINGKEIRVDVHIQALKVNGRWILESVHNE | 1.54 |
| REEERLTRHFAHRLFHSLMTGDEDELTELADPNARSIVDGRTVHGRETMSRIIHHKVRELGVDHNTIEHIEFQGNYVHVHMRIEVGDKTYTSIIHIEKVDGRWLVRSVNLL | 0.491 |
| REEESEWKKFFEDLLRSLVTGDESSLSKMIDPHARLDVDGREFHGREHMAHWIVRTLNEHGITIKIEIKDFRLVGDKVHVDGHEDIEVGDKRHERRLHIILLKFNGRWVIKELKVE | 2.67 |
| REENEMLKRAIKHILRVLETGDFEDLSKMFDPHARLFFNGVLFMGRENVEHHWERERERYKNLRLHFRHVNYHVQGDKVFVEYHVDVTVGDKKWEVHFHFIVIKINGQWYNEDLEIEIR | 1.66 |
| REIEEDVEKALRLWEKTMFTGDEDRFMELADPHTRVTFNGREVIGMEIWKTLVEELGIDVIKDTRIHDVKVQGNKVHVDSHRHVHFNGKTVEIRTRLIATKFDGRWHIESIRFQ | 0.803 |
| REIEKSLEESLKMWLENLVTGDERQLSELVDPDAKLEVGDKHHVGMETISHMIRHMRIESIEIKSIRIFDGRAEIHAYVLGNINGQRKDLNEKLHWEKINGRWEVRKILLE | 2.13 |
| REKDDEMDRIVKIFYHVLRTGNEELLDTLIDPDTRIEVDINGVNYISHGREEWKRVIEELLRHMRINSIIIHDIRYQGNKATIDNHADLEFDGVRFEMRSELRIIVVNGRYRSFSRIIR | 1.13 |
| REKDDLLHEFTERYMTAIETGDEETLEKLMDPDVKLHVGEYHDHGREDVSEWLRTHLEQWRIERIEIQHVDLQGDKLRVDLIVHARVGDKRIILHTILISRKINGRWHIKFFSMR | 1.3 |
| RELDEMAERAVEWYFRVLRTGDEHTLSRLLDPNVRVVFDGRTYIGREWYREHEEKLGVDHMRLDVKSVRNINGRIEVDVRVNREVNGQEIRIEMRMTSEKVDGRWEVKTVEEK | 1.3 |
| RELEESSKFFLKLIIEAFLTGDERTNSELADPNVRIHIGEFHYHGREEFSKLMEELVKRVKNATVINDIDHIEVQGEKIKMDGRLILIYNGRIFETRTSLIVVKIDGRWLIESVHVK | 1.48 |
| RELERDSTELIKMWLRHLETGDEDVISELIDPNVKVDINGQDHHGREDATEWAMRVKNMTIIVRHLEFQGEKAFVTTEVRVNGKTVHVIVRSLKVDGRWRLESLEVHSE | 1.59 |
| REQEEFSENAIKLWEHLTKTGDEEKMTKLMDPHARLDVNGQQLVGRELIEKIIREILKRIDHLDHIEFEHIDNQGEKVIIHSRVIFIFNGRKIDTEVHVIMIKINGQWRIESMTEK | 1.18 |
| REQEELMREYYEIHTHVLKTGNEDALEKLLDPNVRIHIDGKELHGMEAWEILNKRFDHIRHSHIHDFRIIGDKLHIDGRQKGVVDGVEREVHVHIVIEKIDGRWKLKSFYFR | 1.2 |
| REQEHEAKVAVDEWREDMETGDEHRLRELMDPDVRNIVGDKELHGREAVEFLITQIDHVKHIHVRHLDIQGDYIRFEGEINIHVNGRDRTLDVELYFIKINGRWHIHKLRFD | 1.66 |
| RESDEEREEFYKLLMHAYETGDERILNELMDPNVQIHQGEWHLHGRKDLRRRFKHLRIDHVDHITRDMRVVGDKIEVHGHIIVEGTVDGVRDTKSFDVHILTEKIDGQWFIKSVHIR | 0.903 |
| RETEEEIRHAHELLLEAEQTGDEHILHHMLDPNVRFQVGDKHIHGRENFMKQFRKLWEDFGVDHIEIRLKEMRVFENRVHVRGELIIRVGDKEMRTKHIEVSEKIDGKWLLHSVKFE | 1.14 |
| REWKEEMLRFLTRWNKAYKTGNEQELNKLADPNVRVDINGKQLHGRELATLIVSELRIEETHVKMDTFRIVGEKAEIDSRLEIHGVYDGVKMDTHHEVVIILRKVDGQWHLTTMEER | 0.382 |

| Sequence | protease stability score |
| --- | --- |
| RHEEEVLEHWMRLYIEALLTGDEHTLHRLLDPNAKVHIDGRDVVGREEIVRWLREFWNEIRIKHLTISDLKIYGEYVHITGTLNVQVNGQTEHRRIEIDLVIIDGVFKESEVRIH | 2.39 |
| RHEERHLEEKLQRLLHAWLTGDEDELTELADPDVRLKINGQHYIGWEQFFKALTDLRREMRIHDLKIKRKEIDGDKLVLDGETDGEINGVKRLHKTEIIIIMIDGRLRRVEFRQH | 0.618 |
| RKEEDEARKFLHTYIELMRTGDEDNLKEFVDPHVRLEVGDKRVVGWDRYVENVVELIEKVPNLRIHIDSVRAIGNWLHVDGTLIQGDKHREIHLHLQKIDGRWILTHQHVR | 1.34 |
| RKEEEDLHKLLEHLSENYWTGNEEMFNHLADPHTRFEIRIGEFTIEDHGRERIKELVEWLLRFLGANHSHLTSIRVVGDKFHVNSLIHVDGREHTLHIIFVFINGRLTHYSMEVR | 1.35 |
| RQEEHDMEYAREIVERVLDTGDEHLMEEYFDPNAKLRIGDKEDHGREVFAHWVREIRVRHVQLTDHRLVGDKLEFDIELDININGREHRTKVHLIIRKVNGKWFIQHVEIR | 1.19 |
| RSEEHEAKDKVREWVEAYLTGDEDHLRRLHDPDMRFNWNGVEIHGMEEFSHWMHKYMYELGVDHTHVTVRHIEFYGDKIHADTKLFIRQGDKEREHHSQVHIEVINGQFKRLEIREH | 0.829 |
| SAEEHAQRVILELLIEAYETGDEDMLRRLFDPNVRIEIGDKDFVGREDFDHLLERVKNVVFHEIRLRDVKVYNGKVEDNGEINIRYGDKSRTHQVKIVMIKVDGRWMLHDFEIK | 1.96 |
| SDAERHSQEVLRLWIKAAKTGDEDKFRNYIDPHVRVEINGKEIHGRDILLEEMRRRDVIRHVRVTDSRHYDGVVIMDVEVDGHVNGRDVETQTTSFIIKIDGKWVWQSFVQI | 0.98 |
| SDDEEDVWRMAEIILKLFYTGDEEKFRNLADPNVRLNFNGRNFIGRENLEKHLRELRIHRIELREMDLKVINGRAEVRVRGFVDGEIDGQRYHSEVRLIMIITKVDGRWIIESIEFEQL | 2.59 |
| SDDEEEVLRLMDHILHALWTGDWKHLEENMDPNVRSHINGQDVHGMERVVEFILRELKELRFEHLHIEHVEIIGNKATLHYRVDGHINGRRINRRVHLEVTMVNGRVKQVIFFNE | 2.08 |
| SDDEHAAHLIIFIWTFALITGDEQTLKELLDPNVKNEFNGVELHGREQVEEHVRRYDWVTDFKFRVDDIQHQGEKIILDGTLVITMEFDGRREDIKSRFILIVRKVDGKWHLERLIIV | 1.86 |
| SDDEQNVRDTFTEFVESMETGDEDHMLEMVDPHVRIEFENHSHIGRDNVHRWILFFKNATLRWKLERMHVYDGRVEIHSRMEVEVNGREIEFNIILHVRKVDGKWVIHEIRIH | 1.14 |
| SDDEREDRIAIDILLRSTETGDEDTVRHMFDPNARVDVDGREIHGRDASKLFMERVDHIHEVKIDDIKTINGRVHNEGTWYGEYGDKKSELKVHWVLLKIDGRWLIKEVRIR | 1.57 |
| SDDERLAHHLVELLLHNIETGDFRMLMHLIDPNVRIDINGVEIHGREEWHKHLRTLGFDHFELHIDSIDAFDGKVIVHTTIRIKYNGVHFEKKTHLIAEKFDGRWYMREIRER | 1.55 |
| SDDERMLHLLIKILIRAIQTGDEDTLLRQVDPHVRIDIDGRDIVGREDLIEFAKHWRFELREVNIRHMEIYGEYIHAEVEVRGKIIIGDKEVETTVDTRHIILKINGRWFFHSISVK | 1.26 |
| SDDHEEAKEALRLWVEDLLTGDEDRLRELVDPNARIEIIVNGRTIEYHGRDRVNKWTSFVLLRLGVKHSHVHEIRLIDGRVHNDLRIHQGDKDQILHLSFEKINGKWTLREVKISVV | 1.39 |
| SDDHHKAKLFNEWFKQHFDTGDEHLYKRLADPNVRIHINGVDIVGRELATHLLSHIRITHFEVHDHKVQGNKVHTDGRVHGDVNGVEERVYVELVIEKIDGRWLNHQEIWV | 0.332 |
| SDEDEDARRVMELLLELFETGNWRELSKLADPHVRMEIDGQDFHGRELFEHFVRELIEKFKGAKLELRVHTLDLINGVMYSDIHIHLNVNGRKLDIRSHFRILKIDGRWLTRSFHFK | 1.25 |
